Data reported in PMC11091522.

T1: rmCD3δε-Fc (CD3 delta/CD3 epsilon heterodimer) (mouse, UniProt P04235;P22646 22-105;22-108)
T1 sequence 1: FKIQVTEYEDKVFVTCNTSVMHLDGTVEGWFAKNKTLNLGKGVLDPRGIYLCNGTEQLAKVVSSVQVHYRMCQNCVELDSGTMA
T1 sequence 2: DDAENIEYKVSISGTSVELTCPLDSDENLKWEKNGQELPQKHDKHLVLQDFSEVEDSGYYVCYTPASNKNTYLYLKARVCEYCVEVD

B1: CD3 Apt12 monomer (XNA)
RNA: GGGAGAGAAGGAUAGGGUCCCCUGUCGAUAUCCACCGUCUGGCCCGCAUUGAUUCCUUAUACCUCCUUUCCC
modifications: 2'-fluoro pyrimidines
B2: CD3 Apt5 monomer (XNA)
RNA: GGGAGAGAAGGAUAGGGCCUUGCCUGCUUUCACGUGUGAUCCCUGCCCGUUUCCUUAUACCUCCUUUCCC
modifications: 2'-fluoro pyrimidines
B3: CD3 Apt3 monomer (XNA)
RNA: GGGAGAGAAGGAUAGGGUCCCUACCUGAAACUCGAAGAUGAGCCCUGUCUGAUUCCUUAUACCUCCUUUCCC
modifications: 2'-fluoro pyrimidines
B4: CD3 Apt1 monomer (XNA)
RNA: GGGAGAGAAGGAUAGGGCCCCGAUUGAUUCGCAAUGUGCGUCCCCUCGUGCCUUCCUUAUACCUCCUUUCCC
modifications: 2'-fluoro pyrimidines

The binders below were run against T1, rmCD3δε-Fc (CD3 delta/CD3 epsilon …) (assay: filter binding).

Binding result, binds:
B1
B2
B3
B4
